Data as given in patent US20250243290A1.
Several values for one entry are separate records, joined by “and”; a condition that tells them apart may be missing. Equal values may be shown once.

Assays:
Experiment in all cases: peptide-array ELISA [Con't]
2LSCGSR2…2 = target: 2LSCGSR2…2
2RLCAPLRK2…2APGTFSN = target: 2RLCAPLRK2…2APGTFSN
C2…22SK2SPGQHC = target: C2…22SK2SPGQHC
CDQVETQA2…2TSTSPTRC = target: CDQVETQA2…2TSTSPTRC
[1] = target: CG2RL2APLRK2RPGFCQA2TREQNRI2T2RPC
CG2RL2APLRK2…2RLC = target: CG2RL2APLRK2…2RLC
CQA2TREQNRI2T2…2TSTSPTRC = target: CQA2TREQNRI2T2…2TSTSPTRC
[2] = target: DVV2…
E2LS2…2RPGW = target: E2LS2…2RPGW
[3] = target: E2LS2…2…
E2LSCGSR2…2T = target: E2LSCGSR2…2T
E2LSCGSR2…2 = target: E2LSCGSR2…2
[4] = target: EGCRL2…
Chain of EGCRL2… (peptide, as listed by the source): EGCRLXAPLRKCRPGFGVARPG

LCAPLRK2…2APGTFSN = target: LCAPLRK2…2APGTFSN
LS2…2TREQNRIC = target: LS2…2TREQNRIC
LSCGSR2…2T2 = target: LSCGSR2…2T2
LSCGSR2…2 = target: LSCGSR2…2
LSKQEG2…2APGTFSN = target: LSKQEG2…2APGTFSN
[5] = target: LWNWVPE2…
Chain of LWNWVPE2… (peptide, as listed by the source): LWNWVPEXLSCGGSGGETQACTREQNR

NRI2…2R = target: NRI2…2R
NWVPE2…2 = target: NWVPE2…2
[6] = target: NWVPE2…
Chain of NWVPE2… (peptide, as listed by the source): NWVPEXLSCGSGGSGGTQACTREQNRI

PE2LS2…2RPG = target: PE2LS2…2RPG
PE2LS2…2…2 = target: PE2LS2…2…2
PE2LSCGSR2…2T = target: PE2LSCGSR2…2T
QNRI2…2R = target: QNRI2…2R
WNWVPE2…2T2 = target: WNWVPE2…2T2
[7] = target: WY2…
Chain of WY2… (peptide, as listed by the source): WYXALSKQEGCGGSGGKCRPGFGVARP

[8] = target: Y2…2…
[9] = target: Y2…
Chain of Y2… (peptide, as listed by the source): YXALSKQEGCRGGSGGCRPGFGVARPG

[10] = target: …2AGGSGGL2…
[11] = target: …2GGSGGL2…
…2RPGW = target: …2RPGW
…2RPG = target: …2RPG
Chain of …2RPG (peptide, as listed by the source): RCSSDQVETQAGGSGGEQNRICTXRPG

…2…2RPGW = target: …2…2RPGW
…2…2R = target: …2…2R
…2…2TSTSPTRC = target: …2…2TSTSPTRC
2LS2…2RPG = target: 2LS2…2RPG
CDQVETQA2…2RLC = target: CDQVETQA2…2RLC
[12] = target: CI2RPHQI2…2…
CNASMDAV2…2TSTSPTRC = target: CNASMDAV2…2TSTSPTRC
CNWVPE2LS2GSR2…2TSTSPTRC = target: CNWVPE2LS2GSR2…2TSTSPTRC
[13] = target: CTSSTDI2RPHQI2NVCQA2TREQNRI2T2RPC
EQNRI2…2RL = target: EQNRI2…2RL
QEG2…2APGTFSN = target: QEG2…2APGTFSN
[14] = target: S2…2…
[15] = target: STDI2…
Chain of STDI2… (peptide, as listed by the source): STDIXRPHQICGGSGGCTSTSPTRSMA

…22SK2CQA2TREQNRI2T2RPC = target: …22SK2CQA2TREQNRI2T2RPC
…2LS2GCLSKQEG2RL2APLRKC = target: …2LS2GCLSKQEG2RL2APLRKC
[16] = target: …2RLCAPLRK2…
…2SK2SPGQ = target: …2SK2SPGQ
[17] = target: …2…2…

## agonistic TNFR2 antibody MR2-1
2LSCGSR2…2
  Raw luminescence data: 251
2RLCAPLRK2…2APGTFSN
  Raw luminescence data: 245
C2…22SK2SPGQHC
  Raw luminescence data: 263
CDQVETQA2…2TSTSPTRC
  Raw luminescence data: 251
[1]
  Raw luminescence data: 244
CG2RL2APLRK2…2RLC
  Raw luminescence data: 252
CQA2TREQNRI2T2…2TSTSPTRC
  Raw luminescence data: 274
[2]
  Raw luminescence data: 243
E2LS2…2RPGW
  Raw luminescence data: 233
[3]
  Raw luminescence data: 233
E2LSCGSR2…2T
  Raw luminescence data: 225
E2LSCGSR2…2
  Raw luminescence data: 262
[4]
  Raw luminescence data: 239
LCAPLRK2…2APGTFSN
  Raw luminescence data: 262
LS2…2TREQNRIC
  Raw luminescence data: 232
LSCGSR2…2T2
  Raw luminescence data: 226
LSCGSR2…2
  Raw luminescence data: 274
LSKQEG2…2APGTFSN
  Raw luminescence data: 247
[5]
  Raw luminescence data: 260
NRI2…2R
  Raw luminescence data: 229
NWVPE2…2
  Raw luminescence data: 258
[6]
  Raw luminescence data: 229
PE2LS2…2RPG
  Raw luminescence data: 277
PE2LS2…2…2
  Raw luminescence data: 262
PE2LSCGSR2…2T
  Raw luminescence data: 275
QNRI2…2R
  Raw luminescence data: 242
WNWVPE2…2T2
  Raw luminescence data: 247
[7]
  Raw luminescence data: 254
[8]
  Raw luminescence data: 245
[9]
  Raw luminescence data: 256
[10]
  Raw luminescence data: 254
[11]
  Raw luminescence data: 250
…2RPGW
  Raw luminescence data: 276 and 272
…2RPG
  Raw luminescence data: 257
…2…2RPGW
  Raw luminescence data: 270
…2…2R
  Raw luminescence data: 225
…2…2TSTSPTRC
  Raw luminescence data: 267
2LS2…2RPG
  Raw luminescence data: 162
CDQVETQA2…2RLC
  Raw luminescence data: 157
[12]
  Raw luminescence data: 165
CNASMDAV2…2TSTSPTRC
  Raw luminescence data: 164
CNWVPE2LS2GSR2…2TSTSPTRC
  Raw luminescence data: 161
[13]
  Raw luminescence data: 166
EQNRI2…2RL
  Raw luminescence data: 159
QEG2…2APGTFSN
  Raw luminescence data: 167
[14]
  Raw luminescence data: 171
[15]
  Raw luminescence data: 159
…22SK2CQA2TREQNRI2T2RPC
  Raw luminescence data: 158
…2LS2GCLSKQEG2RL2APLRKC
  Raw luminescence data: 164
[16]
  Raw luminescence data: 165
…2SK2SPGQ
  Raw luminescence data: 163 and 156
[17]
  Raw luminescence data: 160
